Literature values as cited in article PMC9221429.

Columns and labels:
[1] = target: B-Raf V600E (Homo sapiens) (UniProt P15056)
B-Raf (Homo sapiens) = B-Raf (Homo sapiens) (UniProt P15056)
B-Raf (Homo sapiens), sequence (P15056 2-766): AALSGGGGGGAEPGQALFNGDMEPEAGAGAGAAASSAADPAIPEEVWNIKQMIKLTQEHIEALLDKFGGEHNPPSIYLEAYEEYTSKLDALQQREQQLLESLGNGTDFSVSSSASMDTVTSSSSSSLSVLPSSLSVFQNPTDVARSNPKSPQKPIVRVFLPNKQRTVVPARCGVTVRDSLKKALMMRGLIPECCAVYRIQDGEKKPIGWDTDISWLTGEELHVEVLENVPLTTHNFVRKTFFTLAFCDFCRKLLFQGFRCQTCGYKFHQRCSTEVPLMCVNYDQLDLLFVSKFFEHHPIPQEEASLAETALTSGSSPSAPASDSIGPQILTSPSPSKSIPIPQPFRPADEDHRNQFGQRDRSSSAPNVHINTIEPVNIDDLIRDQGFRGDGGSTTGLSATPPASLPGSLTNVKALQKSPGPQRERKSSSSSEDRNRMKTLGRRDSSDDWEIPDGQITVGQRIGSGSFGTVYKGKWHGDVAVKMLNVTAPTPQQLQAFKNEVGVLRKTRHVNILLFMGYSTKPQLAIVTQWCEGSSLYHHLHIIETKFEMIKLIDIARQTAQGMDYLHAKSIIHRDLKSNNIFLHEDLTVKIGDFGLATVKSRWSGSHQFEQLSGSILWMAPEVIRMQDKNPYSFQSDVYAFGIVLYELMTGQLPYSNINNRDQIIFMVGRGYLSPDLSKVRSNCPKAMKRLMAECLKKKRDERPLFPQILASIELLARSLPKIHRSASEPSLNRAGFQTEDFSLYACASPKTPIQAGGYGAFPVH

Cdc37, sequence (Q16543 2-378): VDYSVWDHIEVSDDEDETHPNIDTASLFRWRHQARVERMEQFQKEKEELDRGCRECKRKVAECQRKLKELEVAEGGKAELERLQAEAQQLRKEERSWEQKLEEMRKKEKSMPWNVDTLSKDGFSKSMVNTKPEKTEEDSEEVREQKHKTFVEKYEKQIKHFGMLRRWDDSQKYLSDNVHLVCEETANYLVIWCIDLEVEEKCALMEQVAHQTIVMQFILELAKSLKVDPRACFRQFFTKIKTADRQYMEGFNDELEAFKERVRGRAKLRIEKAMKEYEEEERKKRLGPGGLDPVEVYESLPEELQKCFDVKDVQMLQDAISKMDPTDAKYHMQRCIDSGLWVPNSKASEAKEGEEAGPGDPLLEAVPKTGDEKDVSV
B-Raf V600E (Homo sapiens), sequence (P15056 2-766 V600E): as the sequence (P15056 2-766) above, with V599E counted along it

Kd [1]: 400 nM | Kd (B-Raf (Homo sapiens)): 1000 nM
Substance: Cdc37 (from UniProt Q16543)
